Source: patent publication US20250179196A1 (Janssen / Centocor, published 2025)

How the values were obtained:
[1] = target: T1, Recombinant human IL-23 receptor (IL-23R) extracellular domain (ECD) protein (human, UniProt Q5VWK5 24-355); assay: SPR Biacore 8K, supernatant, analysis 2
T1 construct: also called human IL-23R ECD; hu IL-23R ECD
T1 sequence: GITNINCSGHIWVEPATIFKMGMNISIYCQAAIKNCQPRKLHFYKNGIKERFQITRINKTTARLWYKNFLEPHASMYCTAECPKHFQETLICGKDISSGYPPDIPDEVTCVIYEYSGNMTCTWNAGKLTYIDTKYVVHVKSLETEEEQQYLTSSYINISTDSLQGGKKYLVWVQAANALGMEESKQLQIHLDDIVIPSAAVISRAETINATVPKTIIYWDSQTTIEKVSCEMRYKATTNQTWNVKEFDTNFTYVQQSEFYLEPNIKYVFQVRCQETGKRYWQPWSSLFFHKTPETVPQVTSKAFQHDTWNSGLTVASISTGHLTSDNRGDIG
Procedure, shortened: (§1)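 Antibodies (~150 RU) were captured and human or rat IL-23R ECD injected at 0.8–500 nM in 5-fold steps, at 25 °C in HBS-P+ with 100 μg/ml BSA. Association ran 3 min at 50 μL/min, followed by 30 min dissociation. Ka, Kd and KD came from a Langmuir 1:1 fit.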

[2] = target: T1, Recombinant human IL-23 receptor …; assay: SPR Biacore 8K, purified, analysis 2
Procedure: (§2) Affinity by SPR using Biacore 8K. Affinity measurements using Surface Plasmon Resonance (SPR) were performed using a Biacore 8K system (Cytiva). […] Approximately 9000-10000 RU (response units) of mAbs were immobilized. The kinetic experiments were performed at 25° C. in running buffer 1× of (HBS-P+ Buffer 10× (Cytiva #BR100671)+100 μg/ml BSA). To perform kinetic experiments, approximately 150 RU of mAbs were captured followed by injections of human IL-23R or rat IL-23R at concentrations ranging from 0.8 nM to 500 nM (in a 5-fold serial dilution). The association phase was monitored for 3 minutes at 50 μL/min, then followed by 30 minutes of buffer flow (dissociation phase). […] The collected data were processed using Biacore insight Evaluation software (Version 3.0.12.15655). The kinetic analysis of the data was performed using a Langmuir 1:1 binding model. The result for each mAb was reported in the format of Ka (On-rate), Kd (Off-rate) and KD (equilibrium dissociation constant).

[3] = target: T1, Recombinant human IL-23 receptor …; assay: SPR Biacore 8K, purified, analysis 1
Procedure: as §2

[4] = target: T1, Recombinant human IL-23 receptor …; assay: SPR ProteOn, purified
Procedure: Affinity by SPR using ProteOn. Affinity measurements using Surface Plasmon Resonance (SPR) were performed using a ProteOn XPR36 system (BioRad). […] Approximately 6000 RU (response units) of mAbs were immobilized. The kinetic experiments were performed at 25° C. in running buffer (DPBS+0.01% P20+100 μg/ml BSA). […] The association phase was monitored for 3 minutes at 50 μL/min, then followed by 10 minutes of buffer flow (dissociation phase). The chip surface was regenerated with two 18 second pulses of 100 mM H3PO4 (Sigma, Cat #7961) at 100 μL/min. The collected data were processed using ProteOn Manager software. First, the data was corrected for background using inter-spots. Then, double reference subtraction of the data was performed by using the buffer injection for analyte injections. The kinetic analysis of the data was performed using a Langmuir 1:1 binding model. The result for each mAb was reported in the format of Ka (On-rate), Kd (Off-rate) and KD (equilibrium dissociation constant).

[5] = target: T2, rat IL-23R extracellular domain (ECD) protein (rat); assay: SPR Biacore 8K, supernatant
T2 construct: also called rat IL-23R ECD; F1LX96 amino acids 24-354
T2 chain: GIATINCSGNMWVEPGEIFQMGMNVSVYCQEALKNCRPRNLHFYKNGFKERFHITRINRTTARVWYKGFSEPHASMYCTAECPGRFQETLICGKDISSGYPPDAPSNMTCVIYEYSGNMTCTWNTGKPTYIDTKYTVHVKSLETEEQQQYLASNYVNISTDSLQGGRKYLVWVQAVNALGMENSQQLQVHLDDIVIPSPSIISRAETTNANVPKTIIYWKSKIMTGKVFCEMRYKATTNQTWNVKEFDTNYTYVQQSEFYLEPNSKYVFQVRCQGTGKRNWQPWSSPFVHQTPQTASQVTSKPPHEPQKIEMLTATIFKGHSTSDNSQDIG
Procedure, shortened: as §1

[6] = target: T1, Recombinant human IL-23 receptor …; assay: SPR Biacore 8K, supernatant, analysis 1
Procedure, shortened: as §1

B1: I23RB42 (antibody, mouse IgG2a, kappa, V domains shown)
VH: EVQLQQSGAELVKPGASVKISCKASGYSFTDYIMNWVKQSHGKSLEWIGNINPYFGFTSYNQEFKGKATLTVDKSSSTAYMLLNSLTSEDSAVYYCSRGSYYGYETFFDYWGQGTTLTVSS
VL: DIVLTQTAPSVPVTPGESVSISCRSSKSLLHSNGNTYLYWFLQRPGQSPQLLIYRMSNLASGVPDRFSGSGSGTAFTLRISRVEAEDVGVYYCMQHLEYPYTFGSGTRLEIKR
notes: mouse immunization; mouse IgG2a/kappa
Binder B1 has a Kd [1] of 0.108 nM, a koff [1] of 6.29e-05 s⁻¹ and a kon [1] of 582000 M⁻¹ s⁻¹. The Kd [2] was 0.117 nM, the koff [2] was 6.25e-05 s⁻¹ and the kon [2] was 535000 M⁻¹ s⁻¹. It also gave a Kd [3] of 0.0725 nM, a koff [3] of 5.76e-05 s⁻¹ and a kon [3] of 795000 M⁻¹ s⁻¹.

B2: I23RB4 (antibody, mouse IgG2a, kappa, V domains shown)
VH: QVQLVQSGAEVKKPGSSVKVSCKASGGTFKTYAIHWVRQAPGQGLEWMGWIIPIFGTANYAQKFQGRVTITADESTSTAYMELSSLRSEDTAVYYCARDGGYYGSRYYPRSYYFDYWGQGTLVTVSS
VL: EIVLTQSPATLSLSPGERATLSCRASQSVSSYLAWYQQKPGQAPRLLIYDASNRATGIPARFSGSGSGTDFTLTISSLEPEDFAVYYCQQRSNWPLTFGQGTKVEIKR
notes: phage display; human V regions, mouse IgG2a/kappa constant regions
Work on B2 yielded a Kd [1] of 0.477 nM, a koff [1] of 0.000121 s⁻¹ and a kon [1] of 254000 M⁻¹ s⁻¹. The Kd [4] was 0.151 nM, the koff [4] was 0.000235 s⁻¹ and the kon [4] was 1.56e+06 M⁻¹ s⁻¹. For the same binder, the Kd [3] was 0.588 nM, the koff [3] was 0.000135 s⁻¹ and the kon [3] was 230000 M⁻¹ s⁻¹. B2: no binding (tested: 500 nM) [5].

B3: I23RB9 (antibody, mouse IgG2a, kappa, V domains shown)
VH: QVQLVQSGAEVKKPGSSVKVSCKASGGTFSSYAISWVRQAPGQGLEWMGGIIPIFGTANYAQKFQGRVTITADESTSTAYMELSSLRSEDTAVYYCARDRSYSYGLSGLGYYGFDYWGQGTLVTVSS
VL: EIVLTQSPATLSLSPGERATLSCRASQSVSSYLAWYQQKPGQAPRLLIYDASNRATGIPARFSGSGSGTDFTLTISSLEPEDFAVYYCQQRSNWPLTFGQGTKVEIKR
notes: as for B2
B3: no binding [4].

B4: I23RB2 (antibody, mouse IgG2a, kappa, V domains shown)
VH: QVQLVQSGAEVKKPGSSVKVSCKASGGTFSSYAISWVRQAPGQGLEWMGGIIPIFGTANYAQKFQGRVTITADESTSTAYMELSSLRSEDTAVYYCARDRYRYLGANGFDYWGQGTLVTVSS
VL: EIVLTQSPATLSLSPGERATLSCRASQSVSSYLAWYQQKPGQAPRLLIYDASNRATGIPARFSGSGSGTDFTLTISSLEPEDFAVYYCQQRSNWPLTFGQGTKVEIKR
notes: as for B2
For B4, the Kd [4] was > 4000 nM.

B5: I23RB76 (antibody, mouse IgG2a, kappa, V domains shown)
VH: EVQLQQSGPELVKPGASVKMSCKASGYTFTDYYMNWMKQSHGKSLEWIGYISPKNGRTGYNQKFKGKATLTVDKSSTTAYMELRSLTSEDSAVYYCAKSNGYYALDYWGQGTTVTVSS
VL: DIVLTQSPATLCVTPGETVSLSCRASQNIYKNLHWFQQKSHRSPRLLIKYASDSISGIPSRFTGSGSGTDYTLSINSVKPEDEGIYYCLQGYSTPWTFGGGTKLEIKR
notes: as for B1
B5 was tested, and the Kd [1] was 0.0805 nM, the koff [1] was 3.9e-05 s⁻¹ and the kon [1] was 484000 M⁻¹ s⁻¹. The Kd [2] was 0.0859 nM, the koff [2] was 4.14e-05 s⁻¹ and the kon [2] was 482000 M⁻¹ s⁻¹. For the same binder, the Kd [3] was 0.0891 nM, the koff [3] was 5.62e-05 s⁻¹ and the kon [3] was 631000 M⁻¹ s⁻¹. B5: no binding (tested: 500 nM) [5].

B6: I23RB65 (antibody, mouse IgG2a, kappa, V domains shown)
VH: EVQLQQSGPELVKPGASVKISCKASGYTFTDHTMDWVKQSHGKSLEWIGYIYPKSGNAAYSQKFKSEATLTVDKSSSTAYMEFHSLTSEDSAVYYCARWGLRRDGFTYWGQGTSVTVSS
VL: QIVLTQSPASLAVSLGQRATISCRASQSVSTSSYNYIHWYQQKPGQPPKLLIKYASNLESGVPARFSGSGSGTDFTLNIHPVEEDDTATYYCQHTWEIPYTFGSGTKLEIKR
notes: as for B1
B6 gave a Kd [1] of 0.11 nM, a koff [1] of 4.58e-05 s⁻¹ and a kon [1] of 416000 M⁻¹ s⁻¹. For the same binder, the Kd [2] was < 0.0723 nM, the koff [2] was < 2.89e-05 s⁻¹ and the kon [2] was 400000 M⁻¹ s⁻¹. The Kd [3] was < 0.0597 nM, the koff [3] was < 2.89e-05 s⁻¹ and the kon [3] was 484000 M⁻¹ s⁻¹. B6: no binding (tested: 500 nM) [5].

B7: I23RB92 (antibody, mouse IgG2a, kappa, V domains shown)
VH: EVQLQQSGPEVVKPGASVKISCKASGYTFTDHTMDWVKQSHGKNLEWIGYIYPKSGGTGYNQKFKNKATLTVDKSSSTAYMEFHSLTSDDSAVYYCARWGLRRDGFVYWGQGTLVTVSA
VL: DIKMTQSPASLAVSLGQRATISCRASQSVSTSKYDYIHWYQQKSGQPPRLLIKYASNLESGVPARFSGSGSGTDFTLNIHPVEEEDTATYYCQHTWEIPYTFGSGTKLELKR
notes: as for B1
With B7 the Kd [1] was < 0.124 nM, the koff [1] was < 2.89e-05 s⁻¹ and the kon [1] was 233000 M⁻¹ s⁻¹. For the same binder, the Kd [2] was < 0.12 nM, the koff [2] was < 2.89e-05 s⁻¹ and the kon [2] was 240000 M⁻¹ s⁻¹. For the same binder, the Kd [3] was < 0.109 nM, the koff [3] was < 2.89e-05 s⁻¹ and the kon [3] was 265000 M⁻¹ s⁻¹. B7: no binding (tested: 500 nM) [5].

B8: I23RB94 (antibody, mouse IgG2a, kappa, V domains shown)
VH: DVQLQESGPELKKPGETVKISCKASGYTFTNYGMNWVRQAPGKSLKWMGWINTNTGEPAYAEEFKGRFAFSLETSASTAYLQINNLKNEDMATYFCARVRQTARATRGYFDVWGTGTTVTVSS
VL: DIVMTQSHKFMSTSVGDRVSITCKASQDVNTAVAWYQQKPGQSPKLLIYSAFYRYPGVPDRFTGSGSGTDFTFTINSVQAEDLAVYCCQQHYTSPLTFGDGTRLEIKR
notes: as for B1
Binder B8 has a Kd [1] of 1 nM, a koff [1] of 0.000686 s⁻¹ and a kon [1] of 685000 M⁻¹ s⁻¹. The Kd [2] was 1.15 nM, the koff [2] was 0.000753 s⁻¹ and the kon [2] was 656000 M⁻¹ s⁻¹. For the same binder, the Kd [3] was 0.8 nM, the koff [3] was 0.00063 s⁻¹ and the kon [3] was 787000 M⁻¹ s⁻¹. B8: no binding (tested: 500 nM) [5].

B9: I23RB6 (antibody, mouse IgG2a, kappa, V domains shown)
VH: QVQLVQSGAEVKKPGSSVKVSCKASGGTFSSYAISWVRQAPGQGLEWMGGIIPIFGTANYAQKFQGRVTITADESTSTAYMELSSLRSEDTAVYYCARGRYIRSYDYFDYWGQGTLVTVSS
VL: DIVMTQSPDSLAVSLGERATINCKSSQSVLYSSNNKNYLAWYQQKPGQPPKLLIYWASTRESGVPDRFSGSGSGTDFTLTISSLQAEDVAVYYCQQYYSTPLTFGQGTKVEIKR
notes: as for B2
B9: no binding [4].

B10: I23RB144 (antibody, mouse IgG2a, kappa, V domains shown)
VH: EVQLQQSGPELVKPGASVKMSCKASGYTFTSYIIHWVKQKPGQGLEWIGYIDPYNDDTKYNEKFKGKATLTSDKSSSTAYMEFSSLTSEDSAVYYCARLGSINYYDGSYFDYWGQGTSVTVSS
VL: DIVMTQSPLTLSVIIGQSASISCKSSQSLLDSDGKTYLNWLLQRPGQSPKRLMYLVSKLDSGVPDRFTGSGSGTDFTLKISRVEAEDLGVYYCWQGIHFPLTFGSGTRLEIKR
notes: as for B1
B10 showed a Kd [1] of 53.3 nM, a koff [1] of 0.00277 s⁻¹ and a kon [1] of 52000 M⁻¹ s⁻¹. For the same binder, the Kd [6] was 30.6 nM, the koff [6] was 0.00272 s⁻¹ and the kon [6] was 89000 M⁻¹ s⁻¹. B10: no binding (tested: 500 nM) [5].

B11: I23RB148 (antibody, mouse IgG2a, kappa, V domains shown)
VH: DVQLQESGPDLVKPSQSLSLTCTVTGYSITSGYNWHWIRQFPGNKLEWMGYIHSSGTTNYSPSLRSRLSITRDTSKNQFFLQLNSVTTEDTATYYCTRQLGLKAMEYWGQGTTLTVSS
VL: DIVMTQSHKFMSTSVGDRVSLTCKASQEVRTAVAWYQQKPGQPPKLLIYSASYRYTGVPDRFTGSGSGTDFTFTIISVQAEDLAVYYCQQHYTTPYSFGSGTKLEIKR
notes: as for B1
With B11 the Kd [1] was 0.766 nM, the koff [1] was 0.000382 s⁻¹ and the kon [1] was 498000 M⁻¹ s⁻¹. The Kd [6] was 0.874 nM, the koff [6] was 0.000459 s⁻¹ and the kon [6] was 525000 M⁻¹ s⁻¹. B11: no binding (tested: 500 nM) [5].
